Results: US20130142792A1

What was measured:
[1] = molecular target: RAGE ligand (not named in the glycoform binding study); assay: binding assay of RP-HPLC glycoform fractions; reference is the 3-glycan fraction; method and ligand not stated; data not shown
[2] = molecular target: RAGE ligand (not named in the glycoform binding study); assay: binding assay of RP-HPLC glycoform fractions; method and ligand not stated; data not shown
[3] = molecular target: RAGE ligand (not named in the glycoform binding study); assay: binding assay of RP-HPLC glycoform fractions; method and ligand not stated; reference sample; data not shown

Substance: 0-glycan RAGE fusion protein (RP-HPLC fraction of wild-type RAGE fusion protein) (Fc fusion)
- fold increase in binding against the 3 glycan fraction [1]: 10 fold
- relative binding (percent of control RAGE fusion protein) [2]: 529%

Substance: control RAGE fusion protein (mixture of 67% 3-glycan and 22% 2 glycan RAGE fusion protein) (Fc fusion)
- relative binding [3]: 100%
